Measurements as given in PMC7768682 (Proceedings of the National Academy of Sciences of the …, 2020).
Ends that are not written are not given here.

What was measured:
Assay in all cases: BLI
talin head t1-435 = talin head t1-435 (human, UniProt Q9Y490 1-435)
talin head t1-405 = talin head t1-405 (human, UniProt Q9Y490 1-405)
talin head t1-400 = talin head t1-400 (human, UniProt Q9Y490 1-400)

Measured: binding result

talin head t1-405, sequence (Q9Y490 1-405): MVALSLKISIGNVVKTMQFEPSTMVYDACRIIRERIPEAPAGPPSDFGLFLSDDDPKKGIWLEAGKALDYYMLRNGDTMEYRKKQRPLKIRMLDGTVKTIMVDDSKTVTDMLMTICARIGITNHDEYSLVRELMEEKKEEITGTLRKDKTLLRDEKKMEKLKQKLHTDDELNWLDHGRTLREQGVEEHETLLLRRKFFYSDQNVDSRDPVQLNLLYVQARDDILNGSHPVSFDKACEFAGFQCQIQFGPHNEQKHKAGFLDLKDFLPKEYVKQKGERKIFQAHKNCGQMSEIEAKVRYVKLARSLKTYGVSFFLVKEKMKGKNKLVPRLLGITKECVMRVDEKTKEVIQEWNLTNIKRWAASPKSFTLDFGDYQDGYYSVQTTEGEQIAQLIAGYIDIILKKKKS
talin head t1-435, sequence (Q9Y490 1-435): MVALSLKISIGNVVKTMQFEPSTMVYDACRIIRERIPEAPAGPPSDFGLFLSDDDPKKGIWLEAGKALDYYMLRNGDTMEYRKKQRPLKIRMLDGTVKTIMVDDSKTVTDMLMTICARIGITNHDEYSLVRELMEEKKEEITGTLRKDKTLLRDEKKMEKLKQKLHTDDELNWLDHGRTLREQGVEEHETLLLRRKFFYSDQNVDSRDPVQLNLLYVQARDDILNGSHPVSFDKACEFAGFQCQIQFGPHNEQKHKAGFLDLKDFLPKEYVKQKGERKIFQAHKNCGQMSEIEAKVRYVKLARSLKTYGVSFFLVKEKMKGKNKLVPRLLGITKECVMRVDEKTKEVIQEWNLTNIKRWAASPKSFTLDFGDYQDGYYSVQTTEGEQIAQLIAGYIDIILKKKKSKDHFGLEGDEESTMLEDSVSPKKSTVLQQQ
talin head t1-400, sequence (Q9Y490 1-400): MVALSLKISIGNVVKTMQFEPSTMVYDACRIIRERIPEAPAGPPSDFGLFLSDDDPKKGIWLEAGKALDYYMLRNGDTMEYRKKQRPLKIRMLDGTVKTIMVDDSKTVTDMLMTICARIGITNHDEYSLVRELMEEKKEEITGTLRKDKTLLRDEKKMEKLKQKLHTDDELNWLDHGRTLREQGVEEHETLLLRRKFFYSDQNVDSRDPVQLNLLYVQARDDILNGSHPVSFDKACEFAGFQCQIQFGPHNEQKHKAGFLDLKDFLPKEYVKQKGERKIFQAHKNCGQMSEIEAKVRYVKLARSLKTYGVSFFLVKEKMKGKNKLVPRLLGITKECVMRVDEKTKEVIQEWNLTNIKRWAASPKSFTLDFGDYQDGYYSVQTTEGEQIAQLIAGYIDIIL

{GST}-GSKLLITIHDRKEFAKFEEERARAKWDTANNPLYKEATSTFTNITYRGT (domain or fragment) [GST-integrin β3 cytoplasmic tail fusion, wild type (WT-β3)]
binds: all assays above
